The data set deals with Saccharomyces cerevisiae. The experiment in a line: transcriptional activation domain activity (GFP:mCherry ratio, weighted mean of sorted bins, harmonized to initial dataset scale) (arbitrary fluorescence ratio units); higher = stronger transcriptional activation. The settings on record: beta-estradiol 1 µM; induction time 4 h. In a few lines:
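The listed activation activity is a read-weighted mean of bin median fluorescence, averaged across barcodes and linearly mapped onto the initial dataset scale. Barcoded tiles, fused to an estradiol-inducible synthetic transcription factor, were integrated at URA3 in yeast diploids bearing a GFP reporter. Cells were held 4 hours at 30 °C in SC with 1 uM beta-estradiol, sorted into 8 GFP:mCherry bins, and sequenced, and tiles with fewer than 50 reads were excluded.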

The values below come from the supplement of paper PMC12636428.

For “HHTLPYRFRLDGHAAYLGLFIHFLSVLVVVYIFRLEVCVRYRPGWMRCQCWWR”, the “transcriptional activation domain activity” value is 81600.

In the case of “HIDSFLDQMCKVAEGGGFSLSTLADCVILFRDLARIYQEPFSSPFLRLLYAYT”, the “transcriptional activation domain activity” value came to 65300.

“HIFYTQLYPAYDLPKKLQEDTELETEQENQMLNQVGNINYTHDFSLSHEIDDL”: the “transcriptional activation domain activity” value worked out at 57800.

Consider “HIHCFVALFLVMPFFVLVFIVFLGGCNYCLQKKLVLPSLLLTFVIYGGGRLGF”, for which the “transcriptional activation domain activity” value is 37900.

Turning to “HINYFSLSLIIFYFLIFFISNYLLIKFLFFNYFLPKWWSSRPLRSMIYSLFSI”, the “transcriptional activation domain activity” value amounted to 42500. With “HISCLIISVFLCELMVHIPLSTLFYVGLYFPVHFISTPGYFYFIYCILFQLFL”, the “transcriptional activation domain activity” value stood at 47300. Turning to “HKEASDKENTGSGQAQKNNKVKANTGARVKDEQEAKKKVGRPKKGTEAGTGAG”, the “transcriptional activation domain activity” value came out at 39500. Regarding “HKLALNLKTAWKGRKYEIPLFGVHIAGQYVSTYIFYEVASFKAFFNYIFSFTR”, the “transcriptional activation domain activity” value stood at 69100. As to “HKLKHVLAEHGARMSIHLGRRQVTHVILGRPAGGGGGAGGGLAGGKLQKEIQK”, the “transcriptional activation domain activity” value was determined as 42500. For “HKLVVQVLQSQLLILKILDLCVTFHWHSHRERYLGIGYPLNGSASSLSSNAPY”, the “transcriptional activation domain activity” value was 41400. With “HKRKRTGQEEVAKKPKESRRDKKTRRKRTEPDEEIASADTKERRRKSAGAEKS”, the “transcriptional activation domain activity” value was 20800. Take “HKRRRDSVMMDYDLSNFFSSRQLDISKVLNGTEQNNSHVNDDVLTLSFPGETD”: the “transcriptional activation domain activity” value was 35100. “HKWIIPTPFASHAFHPVDGYLQSVPYHLFVFIFPLHRILYLVLFVLINFWTIF”: the “transcriptional activation domain activity” value turned out to be 62300.

For “HLCHLVPSLPFHLPFFFFEPFLSKTFTSFFLFFFLWLSPLNTNHPPIFLFFHT”, the “transcriptional activation domain activity” value came out at 80200. The value for “HLFFLKNHHCFLSFIFFLFLFTLFFYFIFFLKLQFRKNNNYLFFLYKKFLTFF” was 36800. Turning to “HLGFRYWLLSATEIVNTIFLPSVIAYLYTVYIRFLLTYWLSYAIIAGSFMILF”, the “transcriptional activation domain activity” value stood at 53000. Consider “HLGHEAQASIEEEEEEEEEEEEEEEEEERRGEGGSVRKATHKIAAATVASVGT”, for which the “transcriptional activation domain activity” value is 33300. Consider “HLINEDKYQSFSIKQWLPLVYNMLFYIKEKEELVLRINSSFTLRRFVEMAAKE”, for which the “transcriptional activation domain activity” value was determined as 50700. “HLIVSLSLSIFLFYLFWCLSIHVCVCLVSIYYILLLASLCFFLFFFNYLPILL”: the “transcriptional activation domain activity” value came to 50300. Turning to “HLKHTFVMDVAMSIGYLMAPVLVSACAFIWYVKVDNHELSASVVFVSITLFDM”, the “transcriptional activation domain activity” value was 61800.

Consider “HLLDTNCLLLILKMFGLQEVTNSVVSKVDSPENNFFRYCLMNYSKNPQPMRPE”, for which the “transcriptional activation domain activity” value was found to be 39100. As to “HLLIKILATRFFLEAKKTTYAPLNDQGTLMPSVEWTIMAQLWRLARNKWFEAT”, the “transcriptional activation domain activity” value was found to be 51000.

As to “HLLILRFVAHFSHLGLGCSSYSLMFYVLSYLLYISLLSNIISLYPPSCLYLAH”, the “transcriptional activation domain activity” value turned out to be 45400.

For the sequence “HLLKWCNFGLLPHWLFHILILVSKSSLNNLIIAYVYCPLFFGCFLPSTYISCN”, the “transcriptional activation domain activity” value worked out at 58200. With “HLLSPHIAPELIELLVVRTFLQPHPWPVPSCATTGFLRTLAWISRWAWRHSPL”, the “transcriptional activation domain activity” value amounted to 43900. Turning to “HLLVVAPLILAYLTVDDLSNLRLRLLGRCLRLLAISLAFLCACCCTSSSTPST”, the “transcriptional activation domain activity” value is 58200.

“HLLYVYLVLIAVVISSYRCFLNVSTRSIVICLLTHAFWPPLTFIIVCSAFWIP”: the “transcriptional activation domain activity” value was 73100. In the case of “HLNGESSPQLVPHSHHQPHSDTDEEDWESIGAASLRNNSLAPNIDSVASSTNG”, the “transcriptional activation domain activity” value came to 45100. Consider “HLNPSWIFLFLFLFLFSPSPFYFLFLFFFFFFGGVPGNGFGFGILLYFFAAGI”, for which the “transcriptional activation domain activity” value came to 45700. The value for “HLQTITINSEGDCGHCLSKYGILVIPTLERVVLVSREGRYPWSSWYLELRVFS” was 32100.

Take “HLRNDTRLIPGIKYLQMVLGRVRYCREIIAILARNGHRLPKGMLSTLVRLWLL”: the “transcriptional activation domain activity” value came out at 34800. The value for “HLSLSPSLIPTLSFFLLLLYPLVFFIFIIYRGPLFFLFDLTHLICFIYILFIL” was 27400; that for “HLYQISLLLSIFVFFSQGLCRFLYYLPPVPFLTHISSTKLWVWIGLVACLTLK” was 65800. Then “HMALVHLFAFLDRFALFGKLYRAAQVVNRVTSPYVVLAWTSLYSFSLRVVART”, with 52400. Consider “HMESDEEKERKPKKARKQKAEGSGDEAEPKKKRRGKLKRGGGDHEEAAVAAGE”, for which the “transcriptional activation domain activity” value worked out at 39200. As to “HMLLRQFLILNLFNLIYLHLFLLLWLLLQQLLYLMILFKFPIPYLLALSYRLS”, the “transcriptional activation domain activity” value came out at 55300. “HNILHLFSICVFRYHMLYYDEVRYIWKRWRRRSTYWFFLNRYFNFFGNGAITV”: the “transcriptional activation domain activity” value turned out to be 64600. Then “HNLFELVFLDQMCGFCCFSMRFVVMLDLIGTIILPSTVIYLVYIIIAAVLKFQ”, with 38600; and “HNQPVPKLLHITIYHLSTIPNDNLASFRDLLNHVHVYLLPLVSARPLFTLVTH”, with 78800; and “HNTHKELSEQAVIDSFHVLCFSVGTIKNKPMIVYLVRQGPAIWLTMCTLNDLN”, with 27200. On to “HPLIDVSEEAFIQLAYLAVALAKHLCILTRVTYYQNVKGLSSSHFMYLFYICL”, for which the “transcriptional activation domain activity” value amounted to 40200. Consider “HPLSQRYVLIMSITRLCIPLYFYGYEDNFIGHETTHWIWILVIYVSLQVLILF”, for which the “transcriptional activation domain activity” value stood at 40200. For the sequence “HPLSWAKFALVMGMLSSLGVLVISTYSVSLSILQFARPLQYIPRFLWTIATLV”, the “transcriptional activation domain activity” value came out at 34400. For “HPNDAGDENDGEGESAAPAKEKEPAGTAATPASYQLQSIACHKGTSIHAGHYV”, the “transcriptional activation domain activity” value was 33100. For the sequence “HQLGATESGLRAKNDGKLVQAEARAEGRVTFRTYLTYVRAAGTWTWMMTIFFL”, the “transcriptional activation domain activity” value was determined as 52800. On to “HQLGLVMLGMRCDLMRWMVCMDGIEYAGDIVIYCPALLLQLQCIVHTYGWAAR”, for which the “transcriptional activation domain activity” value was determined as 41700.

Take “HQLYTDWLYLWWIAYTNKMHGRIYIILKESLKNLPIFGWGAQFYNFIFLCRNW”: the “transcriptional activation domain activity” value was found to be 56400. As for “HQPGPWESLDMPWAIGWGLGAFPGIPWDVFFFPLWPSTLFPGSPPPSLLEAPS”, the “transcriptional activation domain activity” value stood at 55500.

As to “HQVYTDWLYLWCLTYFARAHDQVLIILKKSLKHIPIVGWGMQFFRFLFLARSW”, the “transcriptional activation domain activity” value came to 31700. As for “HRAGTSGQSLQQDDVLHVTRATLVELGNTSISTVIASLLVLLEDLARPYAAVA”, the “transcriptional activation domain activity” value stood at 36000. Then “HRGVSVGIQFAPAGSSWYVEPHKCLIWKSFYFLMMYFMHMCVEYVLLLRVLAL”, with 41200; and “HRQTTLSVALPCGELHIAYLVAGLLFHGATCDDIVVIMLCARILFSVCKIYYH”, with 77100.

In the case of “HRRHHVLLPHPAHTLLKGCFEPAFHNSIWHILSCHMYIPCTPILLLLIIQHVL”, the “transcriptional activation domain activity” value is 33200.

Regarding “HRVSMFLGYNPGNIVSNCRRCLDQWGPDILIHPSRIYLVVLPWLPPFFRKQLR”, the “transcriptional activation domain activity” value was 56400. With “HSACDIYYDNICLRLRLEGDLESYSYTARIVVVVLQLERRPMRGVPFITLVFD”, the “transcriptional activation domain activity” value is 29400. The value for “HSALSRSEVSGTGRKAYAQKGRGKARVGSLRAPHFRGGGRAFPVKPRDHSTKL” was 17000.

On to “HSDLLNDMDSASQRASHNASGFPNFLDTSCSSSFDDHFIFTNNLPFLNNNSIN”, for which the “transcriptional activation domain activity” value came out at 60800. Take “HSGVLRDVHVVFQDRSFCARLAEQIGRRLRMIYSNWRETCCMEMLITLSLRLF”: the “transcriptional activation domain activity” value is 73200. For the sequence “HSILGFRFPRLRIMRCITCSSMRPDLRWLTFPIFENLEVFITSLYLTRKYWIQ”, the “transcriptional activation domain activity” value was 58300. The value for “HSITNFELVEDAPHQVGFSTPQMTAKQLMESVSELDLPPLTLDEPPQAIKFNL” was 75900. The value for “HSKHSAEGIVVSKYLMCFLLFCVWIFTHLVEVAVLLLQIIYNTLFILRSLFLH” was 63800. Consider “HSLGSNASIDHLYTYTHAYIYTLYIWLPKMFSFFPFAIIFFLCMLLLFFIFIF”, for which the “transcriptional activation domain activity” value came out at 64600. For “HSLISWLLKSLENGAGAIVIRKLCSALVTHFVRFSHLWPLCVRSLLYCLHANR”, the “transcriptional activation domain activity” value worked out at 71400.

On to “HSLLRGDKETGVCVIEMTPFKQGIDSGAIYGKKTVLVVFCLVKLLLSQAVPES”, for which the “transcriptional activation domain activity” value was determined as 28600.

Regarding “HSLSTIGIDVSHWEPFPLASMQRALAYELHMFCPTLRTVIVWLRRYRYMWRWS”, the “transcriptional activation domain activity” value is 45200. Consider “HSMPSLATICGVCFIVDVYCIMRISLLHSYWIPMRRTLPLLAFPVVSFIFLFF”, for which the “transcriptional activation domain activity” value is 79400. As to “HSPEAANAALRAMDGHSLEGHALKIQGSHRGADAAEERRKEDAAKKATGTKIL”, the “transcriptional activation domain activity” value was determined as 44000. Regarding “HSPYLNSEADFSQILSSAPPVHHDPNETHQENQDIIDRFANSSQEHNEYILQY”, the “transcriptional activation domain activity” value turned out to be 66200. Regarding “HSQYMGYFGGYLVCHLWFTHRFVGMLRLGVVDVVWRFCVYLGLVGWSLGVCYS”, the “transcriptional activation domain activity” value is 72500.

Consider “HSRSPSRHRRRSYSRSRRYDSRSPRRRRSGSPSRRIVDEEEAAVTDGFIRAVA”, for which the “transcriptional activation domain activity” value came to 37300. The value for “HSSAPASPASPSPNSAPTPPATTPPPPPSPAAPRRTHSPPTPGTRRPSTTTPS” was 53500; that for “HSSIEWLMGWPAGLKLNKELALFLGDLFLWVIEYWSSCISALQPLLPHMVWFI” was 39900. As for “HSSSPEDQERKRSKSRLRDAAAAGAAALGVNEYENRKDRKKRERRRERSERRY”, the “transcriptional activation domain activity” value was found to be 24200. With “HSSTAFSGYIDDPFNLNEILPLPASDFKLNTVTNLNEIDFTNIFTKSPHPHSG”, the “transcriptional activation domain activity” value worked out at 136000.
